In article PMC2114938:

Biological target: actin filaments (UniProt P68139)
Assay: immunogold electron microscopy

Cap Z(36/32) (from UniProt P13127 1-286; P14315 1-277) (complex)
percent of filaments with gold label at the barbed end (immune): 17.4%
